# Assay: protease stability score; higher = more stable; yeast display proteolysis, trypsin and chymotrypsin;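 further: relative to predicted unfolded state with 0 unfolded-like and 1 meaning tenfold more protease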
row,Sequence,protease stability score
1,SEDVRDAHEMARIFLEVFRTGNEHHHERMMDPHARVRFDGVDHHGREESTKLLLELWRRVDHLHMDITDLRVQGDKVEVHIRLENRYNGRTHIIHVHLVMIKVDGRWVIREIHFD,0.752
2,DDDKKRAEELLRLWHEFFETGDEHDMNRNLDPHAKVDVNGKEIHGREFVSEWLVRKVKFFKGIKLEHKRSHFVNGRAHLHTEINFDGVEFEVIIHSDKINGRWLVHEIIIK,1.17
3,SEDEEAAHWLTLVLIELFRTGDEDSFTKLLDPNARMHVGDKDFHGRHHILHWILHFLRELGVDHRDMKVEDQHFYDGRLELHVTIIIIVGDKKIRIESHFYVEKVNGRWLVKKIHIH,1.41
4,TETERHIEEHLRQMVHQLRTGDFERFEDLADPNMRIDVDGKEFIGREAVDRFWRRVDVIHDLDFKDMEIQGNKVVLNVRIIGNINGVHDHTEQHIVVFKINGRWYWHSIEVH,1.16
5,DEEQRHAHKIVDRLLELIMTGDEDDLYRLADPNTRIDINGKKFHGMDFWFHLLRRVDHFEVEDFSLKRSDRVDGVAELDHRTTIRVIIGDKTIRLEIRHRMWVVKVDGRWKIEEVVIR,1.04
6,DEDEEAARHFLEQWLEALLTGDEETLTKLLDPHTRLIVDGQELVGRELWLEFFKRIKNMKIHRTEIRHTTSIGDKITLNIHVDVEVDGKRRRFDVQYVILKVNGRWLLKQVNNH,0.498
7,DEEEKEAEDFFHDWVHSMLTGDEDTLRRMIDPHVKIQVGDKEFHGMKWATRMYREIRIEDMRLRRVHVINGKADIHSITHTNINGRQEDIHITIIIEKVDGRWILRSVIIR,2.13
8,DEEEHLSKEAVRLYIESLHTGDEDLWRSLMDPNARLHINGREFHGMERVLRILREIRIKDTRIRDFHVVNGQVHNRMELEIKVGDKERSFDVELIAYKIDGRWITKSVIHH,1.29
9,DDEEEILKEFVRIFREVWLTGDFHALLRLADPNVRQELHVNGREIHNHGREAMSDWHHFMRKFFKGMTIIEHTSYLIDGRIHIEGTWSFDGVDFRTHIHQVVIDGRIEHVQLTIH,0.177
10,DEKDEKLLRFAHEIIELFLTGNEERFTELLDPRVKLDIDGKNAVGREETQRLWEEILHRIDVMHIRIHRYKAQGNKVILDGLIHIEVGDKNEERHSRLHIHVYDGKIKSIRLEYH,2.08
11,DEEEKRERKMAEIWMKSLLTGDEDTLSRLADPNVRNVLIIDGRELNLHGRELMHESLRHLRIEHIRIDEYSIVNGVFHANTTVHGVVGDKRTTVETRIHLWIFDGKFHTIIIIIS,1.03
12,DEIQRLMKYVFEEWVKWFLTGDEEKFNKMVDPDVRLIVNGQHSHGREKANEMWEIYYERFDYIHEFRVHSIRIQGDKVHVDVRLIGRQGDKTIDTRTEIHLVIIDGRIKRAEVRVE,2.62
13,TEEQEIIQKFLDEMMEYLETGDEHSLRRLADPHARWDVNGREYHGRELFITFFSELTHKLGWTIQKIEIESKRRVGEYVSFRMTIHSEVDGRHKVIIYNFFVFKVNGKWFLKSFKEE,1.47
14,DEEEEEDRHAAEITIKVLLTGDEKKLQELADPHTRFIIWIDGRELRYIGRRDLVRVWREIIRKLGIDHLSLDDMRVIDGKIHLHETMNVDGKNISRRIINNVINGVNKHIEVNLS,1.17
15,SEEEEEWHRLIEHWMRKWLTGDEERLARLADPNVRLEDENHQSHGREEMARFLHEKILKLGVDHTRIRHYRDQGEYLHLDFEVEINGRRVRVKVHVVIIDGVVKELKFHVE,1.19
16,DEEHQSLRHIAEILLESWETGDFERVWKFADPHTRVDFNGREKHGMHHVHEMFHILGIDHIELRHMEVINGRINSDGHVEVNGQRHRMHLTIFVFDGRLTEVRFDYE,2
17,SHLKEDLRRALEKELQDLRTGDEEKIVRMMDPNVRLHIDGVELHGRDWLSRYAKEMRTEHIELRRFETQGNKIHIDTEVDLRYGDFRRDVHVEIIAIKVDGRWVKHETEVR,-0.081
18,SEYEEESRIAYELFLETVRTGDEDTSREQADPNVRVDVNGVHLHGRELWAEFVSKYKGMQLDLHHVEIQGNKVTNDGTLTVNGVRRKVHLRINKVNGKWILESVHIH,1.32
19,DELEETAERMMKQFTDMWRTGDEEYFWRLADPHVRVNIDGVTRIGREESSEMFERWIRHIRLKSVHIEEVEIQGEKSHSDGRLNEIVDGKEEIVHVTINLIVINGRIHSVEFERE,0.765
20,DEDDEVAIKFLEDIIQVWETGDEEEFSRLFDPDYRVHIGDKTLHGREIVVQEILEHLRRLGIERFEVRIHIRHAHFYNGRLDLNGELVIIINGKELRRHTHFVVLKVNGRWLLEREEVK,1.76
21,DEMEKMSRDVHKQLKNAFETGDESEMERLLDPHAKIDIGDKRLHGMEEYSHLLHEWRIKDLHIKDIQVQGDKAISDTHRYLEIGDKEYEREVIVYVIKVDGRWIIHSLVFR,0.777
22,TEEDHHAKRMTKMWEEALITGNEHLVKEMFDPHARYRQGEWDLVGREEISKFVLTNLEEWRIDHHHTHSLHLQGEKSHVRSRVLGIFDGKRFETHLQVDVEVINGKIHDLTIRIT,0.678
23,SEEEKEMHHIARLFFELWLTGDEETHQRLLDPDAKHSFNGVILHGRDEMIRYWRQFLEEIRLRSIEIRRITSVGDKVHVDSHVDGEVNGRRIVTREYIELEVVDGRWKRVKLHIK,1.38
24,DEEKKFYIKLFELFWRAWLTGNEQFLLEMADPNVKVEYTYNGRDVRTHGRETMYTFLHEILRYLGVKHSRLRRDEFQGDKVHLDVEEHFNGRTVKTLIIIDVVDGRLEIDKFHTT,0.705
25,DEEHTDITRATEHLIDSMETGDEDRLQELFDPNTLMRINGRRHHGREDMREFIRELVEKVKNLKIEIDHIDVVGNKVRLEVTLRVNGQEISTHIIIVKVDGRWIVKRMHIN,0.667

row,Sequence,protease stability score
1,DEHDRDARRFTDILLEAFMTGDEDLSHKMLDPNMRLHINGKIHHGRELATELLHEMRIERLVIEDYRIHYQGEKVHVTLHGRLHGRVDGKEHNSEVNIFINIEKVNGKWIVRSFTLKIH,1.47
2,DHLHEDSKEAFHLWKELSRTGDPKEFADNVDPNVRILINGKRYHGMEHLEHLMMELGIKHSEITRIDTIGDKLHLDGHNRFNGRTVDVHILSNKINGRWVIEEVEVL,1.14
3,SEDDELAHLFFELFLKLIQTGDEDKLLDLMDPNAKSEYNGVILHGREHKEHWRRRFKNIRVHYRHVEIHFQGNYLHIRIDGSLDINGQEIDSHVRLHTEKVNGKWIVRSMHFHYT,1.25
4,DKEEELIRELMEQFTHWLITGNWKKIVDMADPNVQILYNGQEFHGREELHKALQELLEKLGFKHIEIRRKHVVDGRVHLDGRSIINGRRFEVEYISVIINGVIKEIELRVE,1.95
5,DEDEKESKEAIEISFRLWRTGNEEEIHNYADPRARLEVFINGRLIQRHGREDFSRFMNEQLKRLGIDHIHIERLEIQGEKVIVDIHITVNGQHFRLHQDARKVDGRWIIHDVKINLL,2.65
6,TEQDEIAERVAREIMTMLLTGDWQRLRELADPHVRTIIDGVHVHGWDRMIEVLEVLHREIRIHDIREHSIKVYNGRVEIITHNDGEIDGQRVESSERHDIIIVNGRIKTIRLDIR,1.34
7,SEEEDMARHFNELFIKMLKTGNEEEIKKMADPEVRIIIDVGDYIERDHGWEVLKREREWLGIKHIDIERAEIRVFDGRVHLKLDGRSNVNGKEIEVEIINDTEKINGRWRMKNLRYIFK,1.08
8,SREEELAKKLLEIYSRSVETGDWKKLFELMDPNTRVEQGEWHFHGREEFHKLVHKFLERADVVHVEIDRIKVIGDFVHIDVVLHIHQGEFHHVVRTRLDYLKFNGRWVLQTIRIE,1.6
9,HESTEYADYMLKFLSLVESTGNEDLFKRLFDPDVRLVINGVDTHGWESYHEHRKRVDHKEVEHSEIKHVEVQGEKIIVHGILHVRVKIGDKRFSFEIRFHLIVHKFNGKWHITSIEFH,0.848
10,DEEEQHAERVTRRWSRAVLTGNEEELSRLMDPHVRVHINGRDLHGREVAVEQRREQHKELGIDHIEVRLRHLRIQGDKLEVDSRVIIRVNGQEITIDTLLIWRKIDGRWVLHSVHEH,0.348
11,DENRELMERIARLVLHWLHTGDEHFIERLVDPHARVQQGDKEDHGMDRVVEMWNELRVHHVELRHLEVFENHATIHGEIDGEINGQRVRLDFHIHIHIVDGRMETIHVHFR,2.1
12,DEEERDARRVYEHLIENWETGNFDRVLELFDPHVKLIFNGQEFIGRDDVSKEINRIDHEHIDDFRLHSIRIVDGRIEIDGRIRFTLHVNGKTVHFDRKLILIMRKVDGRWIITSLHIR,2.09
13,DENEEDSKRAVELIEDSMKTGDEELMTKQMDPNVRVDYNGKEHHGWEHAKRWFHLMGVDHLHLHRVRLINGVVHLDVDSRINGREFKVHITALKVDGQWVLKEISIR,1.26
14,SKDDEIIHTLIRFIVHILQTGNEEESHRMADPNAKSNINGVEVHGREEFVDLWVEWMERLGHDRVHSRLRHVNIQGDKAIMHIELDVNGKEFNLIVFIRKVNGRWYLEEMTID,2.11
15,DDQEEFLQRLVEELLRIIETGDWRRFWELLDPNMRVDVDGREIHGMEILVTIIRELWRKLGIDHVHIRLDHVEAFNGQAHAETTVDLRYDGQIIIRESRNHFIIIDGKVEDEKYELR,0.279
16,DEHTDMTRRLAELFRHLIETGNWKELTKLADPNMRLEVGDKEMHGREKLAELWRRIKNVRISIRRVEVQGEKVHLDLELDVDGQRQKFSEHIDIVDGVMRDVNVQWE,2.12
17,DKEEHDMKRLADLMKRIFETGDWEEFWSLVDPNVRLHWIVNGREYEVIGRENASEMIEITLELLGVDHVEIHDIDVQGDKVHMKTRSIVNGREIDDNYHYIIVDGRLRRVEIKLK,1.81
18,SEERHAVERYTEELARAISTGDEEKRLELLDPHVRYLQGDKHIHGRDEVWRHEHRQMEDLGVTRIEMRIRHIRIFNGRVEIEGEVRIGEFEMHFIIYVLKIDGRWIITQEEYS,0.393
19,DEEEERVRNFVERLSKAVRTGDEEEMRDLFDPDVKSRQGDKDVIGRELVAEWLSKFFLRRGIEVHFELKRFEFQGDYLHLRLHVEVRIDGKDHTLTMYVLLIKVDGRWILHSIHRE,1.54
20,DEEEKIAEEMFRRWVELRETGNEDDRRRLADPHTRMVINGVEYHGRDQFTKFLEHVRREWRYEDNKERDVKFQGDKIEINGREVSHFDGKTVTTDVRIEIVVVNGRLKRFNIHVH,1.38
21,SEDAEYIKEFAELFFRWWITGDEEHLRSLADPHTRSDVNGRDIHGMELWSKMLLDHLTKIKNVRYTLREVRFFENHTELDMKVDINGKEMKFSIRVSLINGRLHSITVRLHSE,1.35
22,HEDEHQAEHLLEAVFHIFLTGDWRSLHELVDPNVRFDVNGRRTHGREDLIRFSRELRIHDVRFHRVKLDVYDGRVEMRIDGRIDGEINGRRTDVRSIIEIEFIKFNGQWRVESISLNFH,1.44
23,DEERKFWEEVMRLMREAFETGDEHLIERMADPHVRINIIVDGREIEFHGWEILVDLMKFVKGMQFTLKDSDIINGVLKIDGKTRQGDKITDVEIEFHVVNGRVKEIHVHIL,2.48
24,DDQEEWAKIAMEMILEFLKTGDEELMLELLDPNVRVHLLIDGRHFEDHGRKATRWVIRFIKNVQVKIHNIEYQGDKVHIDVHVDVNGRKTRSREIWTLVDGRIEHVDVQDR,1.2
25,SEEQELLKKLAHENHESQRTGDEDFFHKLADPDARIRVGDKEIHGMEKVLEFWKTFRRQFKGLVVHLEDSHVINGQTFLHRNVNFNGVEEELEIILVVVDGRIKSIEIHLRRR,0.653

# — the NTF2 design screens of Basanta et al. (2020)
